Where “and” joins values, the source holds several entries; their conditions need not be identical. Equal values may be shown once.
Legend:
Human IL-17F [1] = target: T1, Human IL-17F (human, UniProt Q96PD4 31-163); assay: cell-based or functional assay
T1 sequence (looked up): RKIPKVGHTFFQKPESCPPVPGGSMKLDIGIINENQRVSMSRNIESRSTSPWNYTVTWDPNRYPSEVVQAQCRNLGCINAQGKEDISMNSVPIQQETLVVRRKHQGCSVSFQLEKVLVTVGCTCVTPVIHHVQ

Human IL-17A [2] = target: T2, Human IL-17A (human, UniProt Q16552 24-155); assay: cell-based or functional assay
Human IL-13 [3] = target: T3, Human IL-13 (human, UniProt P35225 35-146); assay: cell-based or functional assay
Human IL-17F [4] = target: T1, Human IL-17F; assay: cell-based or functional assay; remark: listed apart in the source
Cyno IL-17F [5] = target: T4, Cyno IL-17F (cynomolgus, UniProt G7P4V0 31-163); assay: cell-based or functional assay
T4 sequence: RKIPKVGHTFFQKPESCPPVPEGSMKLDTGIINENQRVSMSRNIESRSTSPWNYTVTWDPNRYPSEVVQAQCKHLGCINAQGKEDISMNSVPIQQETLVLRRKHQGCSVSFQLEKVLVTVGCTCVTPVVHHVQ

Cyno IL-17A [6] = target: T5, Cyno IL-17A (cynomolgus, UniProt A0A2K5TTB0 24-155); assay: cell-based or functional assay
Human IL-17A [7] = target: T2, Human IL-17A; assay: cell-based or functional assay; remark: listed apart in the source
[8] = target: mixture of human IL-17A, IL-13 and albumin (human); assay: SPR, mixture of human IL-13, IL-17A and albumin injected together over captured antibody
Human IL-17F [9] = target: T1, Human IL-17F; assay: SPR (Biacore T200), antibody captured on anti-human F(ab')2, analyte in solution, 25 C, 1:1 model
Description: (§1) A goat anti-human IgG, F(ab′)₂ fragment specific antibody (Jackson ImmunoResearch) was immobilised on a CM5 Sensor Chip via amine coupling chemistry to a level of approximately 5000 RU. […] Buffer blank injections were included to subtract instrument noise and drift.

Cyno IL-17F [10] = target: T4, Cyno IL-17F; assay: as above
Description: as §1

Cyno albumin = target: T6, Cyno albumin (cynomolgus, UniProt A2V9Z4 25-608); assay: as above
T6 construct: also called Cynomolgus albumin
Description: as §1

Human albumin = target: T7, Human albumin (human, UniProt P02768 25-609); assay: as above
T7 construct: also called human serum albumin
Description: as §1

Human IL-17AF = target: T8, Human IL-17AF (human, UniProt Q16552 24-155; Q96PD4 31-163); assay: as above
T8 construct: also called IL-17A/F heterodimer
Description: as §1

Cyno IL-13 = target: T9, Cyno IL-13 (cynomolgus, UniProt Q0PW92 21-132); assay: as above
T9 construct: also called Cynomolgus IL-13
Description: as §1

Cyno IL-17AF = target: T10, Cyno IL-17AF (cynomolgus, UniProt A0A2K5TTB0 24-155; G7P4V0 31-163); assay: as above
T10 construct: also called Cynomolgus IL-17AF
Description: as §1

Cyno IL-17A [11] = target: T5, Cyno IL-17A; assay: as above
Description: as §1

Human IL-17A [12] = target: T2, Human IL-17A; assay: as above
Description: as §1

Human IL-13 [13] = target: T3, Human IL-13; assay: as above
Description: as §1

Human IL-17A [14] = target: T2, Human IL-17A; assay: SPR (Biacore T200), antibody captured on anti-human F(ab')2, human IL-17A as analyte, 25 C, 1:1 model
Description: (§2) A goat anti-human IgG, F(ab′)₂ fragment specific antibody (Jackson ImmunoResearch) was immobilised on a CM5 Sensor Chip via amine coupling chemistry to a level of approximately 5000 RU. […] At the end of each cycle the surface was regenerated at a flowrate of 10 μl/min using a 60 s injection of 50 mM HCl followed by a 30 s injection of 5 mM NaOH and a final 60 s injection of 50 mM HCl. […] Buffer blank injections were included to subtract instrument noise and drift.
(§3) Kinetic parameters were determined using a 1:1 binding model using Biacore T200 Evaluation software (version 3.0).

[15] = target: mixture of cynomolgus IL-17A, IL-13 and albumin (cynomolgus); assay: SPR, response of the cynomolgus mixture against the sum of the single-analyte responses
Human IL-13 [16] = target: T3, Human IL-13; assay: cell-based or functional assay; remark: listed apart in the source
[17] = target: mixture of cynomolgus IL-17A, IL-13 and albumin (cynomolgus); assay: SPR, mixture of cynomolgus IL-13, IL-17A and albumin injected together over captured antibody
[18] = target: mixture of cynomolgus IL-17A, IL-13 and albumin (cynomolgus); assay: SPR, response of the cynomolgus mixture against the sum of the single-analyte responses, mean of n = 3
[19] = target: mixture of human IL-17A, IL-13 and albumin (human); assay: SPR, response of the human mixture against the sum of the single-analyte responses
Human IL-17F [20] = target: T1, Human IL-17F; assay: SPR (Biacore T200), antibody captured on anti-human F(ab')2, human IL-17F as analyte, 25 C, 1:1 model
Description: as §2, §3

Human IL-13 [21] = target: T3, Human IL-13; assay: SPR (Biacore T200), antibody captured on anti-human F(ab')2, human IL-13 as analyte, 25 C, 1:1 model
Description: as §2, §3

[22] = target: mixture of human IL-17A, IL-13 and albumin (human); assay: SPR, response of the human mixture against the sum of the single-analyte responses, mean of n = 3

inhibition of CXCL1 release from NHEK treated with a mixture of IL-13, IL-17A and IL-17F (Human IL-17F [1]): 81.3% | inhibition of CXCL1 release from NHEK treated with a mixture of IL-13, IL-17A and IL-17F (Human IL-17A [2]): 81.3% | inhibition of CXCL1 release from NHEK treated with a mixture of IL-13, IL-17A and IL-17F (Human IL-13 [3]): 81.3% | IC50, inhibition of IL-6 release from nHDF stimulated with IL-17F and TNF-α (Human IL-17F [4]): 28 nM | IC50, inhibition of IL-6 release from nHDF stimulated with IL-17F and TNF-α (Cyno IL-17F [5]): 34.3 nM | IC50, inhibition of IL-6 release from nHDF stimulated with IL-17A and TNF-α (Cyno IL-17A [6]): 0.049 nM | IC50, inhibition of IL-6 release from nHDF stimulated with IL-17A and TNF-α (Human IL-17A [7]): 0.042 nM | Binding, n = 1 (RU) [8]: 81 RU | Binding, n = 2 (RU) [8]: 131 RU | Binding, n = 3 (RU) [8]: 129 RU | Kd (Human IL-17F [9]): 0.128 nM | koff (Human IL-17F [9]): 0.000198 s⁻¹ | kon (Human IL-17F [9]): 1.67e+06 M⁻¹ s⁻¹ | Kd (Cyno IL-17F [10]): 0.283 nM | koff (Cyno IL-17F [10]): 0.000282 s⁻¹ | kon (Cyno IL-17F [10]): 1.14e+06 M⁻¹ s⁻¹ | Kd (Cyno albumin): 2.47 nM | koff (Cyno albumin): 0.000204 s⁻¹ | kon (Cyno albumin): 81800 M⁻¹ s⁻¹ | Kd (Human albumin): 2.51 nM | koff (Human albumin): 0.000154 s⁻¹ | kon (Human albumin): 66500 M⁻¹ s⁻¹ | Kd (Human IL-17AF): 0.015 nM | koff (Human IL-17AF): 4.54e-05 s⁻¹ | kon (Human IL-17AF): 3.7e+06 M⁻¹ s⁻¹ | Kd (Cyno IL-13): 0.156 nM | koff (Cyno IL-13): 0.000148 s⁻¹ | kon (Cyno IL-13): 948000 M⁻¹ s⁻¹ | Kd (Cyno IL-17AF): 0.014 nM | koff (Cyno IL-17AF): 2.87e-05 s⁻¹ | kon (Cyno IL-17AF): 2.25e+06 M⁻¹ s⁻¹ | Kd (Cyno IL-17A [11]): 0.007 nM | koff (Cyno IL-17A [11]): 1.24e-05 s⁻¹ | kon (Cyno IL-17A [11]): 1.65e+06 M⁻¹ s⁻¹ | Kd (Human IL-17A [12]): 0.009 nM | koff (Human IL-17A [12]): 1.57e-05 s⁻¹ | kon (Human IL-17A [12]): 2.26e+06 M⁻¹ s⁻¹ | Kd (Human IL-13 [13]): 0.026 nM | koff (Human IL-13 [13]): 3.84e-05 s⁻¹ | kon (Human IL-13 [13]): 1.46e+06 M⁻¹ s⁻¹ | Kd (Human IL-17A [14]): 0.0082 nM | koff (Human IL-17A [14]): 3.45e-05 s⁻¹ | kon (Human IL-17A [14]): 3.2e+06 M⁻¹ s⁻¹ | Binding of Mixture as a Percentage of Individual Binding Responses (%), n = 1 [15]: 97% | Binding of Mixture as a Percentage of Individual Binding Responses (%), n = 2 [15]: 96% | Binding of Mixture as a Percentage of Individual Binding Responses (%), n = 3 [15]: 97% | IC50 for inhibition of STAT6 signalling (HEK 293 Human IL4/IL-13 SEAP reporter cells) (Human IL-13 [16]): 4.12 pM and 0.412 ng/ml | Binding, n = 1 (RU) [17]: 146 RU | Binding, n = 2 (RU) [17]: 141 RU | Binding, n = 3 (RU) [17]: 145 RU | Binding of Mixture as a Percentage of Individual Binding Responses (%), Mean [18]: 97% | Binding of Mixture as a Percentage of Individual Binding Responses (%), n = 1 [19]: 100% | Binding of Mixture as a Percentage of Individual Binding Responses (%), n = 2 [19]: 100% | Binding of Mixture as a Percentage of Individual Binding Responses (%), n = 3 [19]: 100% | Kd (Human IL-17F [20]): 0.0821 nM | koff (Human IL-17F [20]): 0.000219 s⁻¹ | kon (Human IL-17F [20]): 2.66e+06 M⁻¹ s⁻¹ | Kd (Human IL-13 [21]): 0.0258 nM | koff (Human IL-13 [21]): 0.000111 s⁻¹ | kon (Human IL-13 [21]): 3.61e+06 M⁻¹ s⁻¹ | Binding of Mixture as a Percentage of Individual Binding Responses (%), Mean [22]: 100%
B1: IL-13/IL-17AF multi-specific antibody (bispecific antibody)
heavy: EVQLVESGGGLVQPGGSLRLSCAASGFTFSDYNMAWVRQAPGKGLEWVATITYEGRNTYYRDSVKGRFTISRDNAKNSLYLQMNSLRAEDTAVYYCASPPQYYEGSIYRLWFAHWGQGTLVTVSSASTKGPSVFPLAPSSKSTSGGTAALGCLVKDYFPEPVTVSWNSGALTSGVHTFPAVLQSSGLYSLSSVVTVPSSSLGTQTYICNVNHKPSNTKVDKKVEPKSCSGGGGTGGGGSEVQLLESGGGLVQPGGSLRLSCAVSGIDLSNYAINWVRQAPGKCLEWIGIIWASGTTFYATWAKGRFTISRDNSKNTVYLQMNSLRAEDTAVYYCARTVPGYSTAPYFDLWGQGTLVTVSSGGGGSGGGGSGGGGSGGGGSDIQMTQSPSSVSASVGDRVTITCQSSPSVWSNFLSWYQQKPGKAPKLLIYEASKLTSGVPSRFSGSGSGTDFTLTISSLQPEDFATYYCGGGYSSISDTTFGCGTKVEIKRT
light: AIQLTQSPSSLSASVGDRVTITCRADESVRTLMHWYQQKPGKAPKLLIYLVSNSEIGVPDRFSGSGSGTDFRLTISSLQPEDFATYYCQQTWSDPWTFGQGTKVEIKRTVAAPSVFIFPPSDEQLKSGTASVVCLLNNFYPREAKVQWKVDNALQSGNSQESVTEQDSKDSTYSLSSTLTLSKADYEKHKVYACEVTHQGLSSPVTKSFNRGECSGGGGSGGGGSEVQLVQSGAEVKKPGSSVKVSCKASGYSFTSYYIHWVRQAPGQCLEWMGRIGPGSGDINYNEKFKGRATFTVDKSTSTAYMELSSLRSEDTAVYYCARFHYDGADWGQGTLVTVSSGGGGSGGGGSGGGGSGGGGSDIQMTQSPSSLSASVGDRVTITCKASQNINENLDWYQQKPGKAPKLLIYYTDILQTGIPSRFSGSGSGTDYTLTISSLQPEDFATYYCYQYYSGYTFGCGTKLEIKRT
notes: also called UCBXXXX; IL-17AF-IL-13 multi-specific antibody
